Experimental data published in patent US20090035322A1 (Regeneron, published 2009).
Residue numbers refer to the chain shown, from its start. Where two headings read alike, the source gives them in different places.

T1: human CD20 (human, UniProt P11836 1-297)
T1 sequence: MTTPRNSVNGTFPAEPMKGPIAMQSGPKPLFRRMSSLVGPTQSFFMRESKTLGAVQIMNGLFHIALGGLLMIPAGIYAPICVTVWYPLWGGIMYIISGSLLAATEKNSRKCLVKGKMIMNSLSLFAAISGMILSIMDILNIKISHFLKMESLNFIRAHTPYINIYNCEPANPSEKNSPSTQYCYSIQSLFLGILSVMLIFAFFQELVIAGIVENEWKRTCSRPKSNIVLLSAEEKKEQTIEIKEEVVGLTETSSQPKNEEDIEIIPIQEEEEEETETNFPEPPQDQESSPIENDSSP

T2: mutant human CD20 #5 (P172S) (human, UniProt P11836 1-297)
T2 construct: Stably expressed on MG87 cells
T2 sequence: T1 sequence with P172S

T3: mutant human CD20 #8 (Y77F, N163D, N166D) (human, UniProt P11836 1-297)
T3 construct: Stably expressed on MG87 cells
T3 chain: T1 sequence with Y77F, N163D, N166D

T4: mutant human CD20 #10 (A157V) (human, UniProt P11836 1-297)
T4 construct: Stably expressed on MG87 cells
T4 sequence: T1 sequence with A157V

T5: mutant human CD20 #4 (N166D) (human, UniProt P11836 1-297)
T5 construct: Stably expressed on MG87 cells
T5 sequence: T1 sequence with N166D

T6: mutant human CD20 #3 (A170S, P172S) (human, UniProt P11836 1-297)
T6 construct: Stably expressed on MG87 cells
T6 chain: T1 sequence with A170S, P172S

B1: 2C11-4 (antibody, V domains shown)
VH: EVQLVESGGGLVQPGRSLRLSCAASGFTFRDYAMHWVRQGPGKGLEWVSGISWNTDYIGYADSVKGRFTISRDNAKNSLYLQMNSLRPEDTALYYCAKDARYGRDNYYGMDVWGQGTTVTVSS
VL: EIVLTQSPATLSLSPGERATLSCRASQSVSRYLAWYQQKPGQAPRLLIHDASNRATGIPARFSGSGSGTDFTLTITSLEPEDFVVYYCQQRSDWPITFGQGTRLEIK
notes: Fully human IgG, constant region not specified; also called 2C11-4N
B2: 9H4-12 (antibody, V domains shown)
VH: EVQLVESGGGLVQPGRSLRLSCAASGFTFDDYAMHWVRQVPGKGLEWVSGISWNSGSIGYADSVKGRFTISRDNAKNSLYLQMNSLRAEDTALYYCAKDMGYGNYYHYGMDVWGQGTTVTVSS
VL: B1 VL with E1D, R31S, H49C, N53H, G57R, T76S, V84A, D93N
notes: Fully human IgG, constant region not specified; also called 9H4-12N
B3: 7E1-13 (antibody, V domains shown)
VH: EVQLVESGGGLVQPGRSLRLSCTASGFTFGDFPMHWVRQAPGKGLEWVSGITWNSGSIVYADSVKGRFTISRDNAKNSLYLQMNSLRTEDTALYYCAKDSHYGSGNFYYYYYGMDVWGQGTTVTVSS
VL: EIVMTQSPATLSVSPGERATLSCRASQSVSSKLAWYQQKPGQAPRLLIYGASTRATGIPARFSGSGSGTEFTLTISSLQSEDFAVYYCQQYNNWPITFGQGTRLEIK
notes: Fully human IgG, constant region not specified; also called 7E1-13N
B4: 3B9-10 (antibody, V domains shown)
VH: EVQLVESGGGLVQPGRSLRLSCVASGFTFNDYAMHWVRQAPGKGLEWVSVISWNSDSIGYADSVKGRFTISRDNAKNSLYLQMHSLRAEDTALYYCAKDNHYGSGSYYYYQYGMDVWGQGTTVTVSS
VL: EIVMTQSPATLSVSPGERATLSCRASQSVSSNLAWYQQKPGQAPRLLIYGTSTRATGIPARFSGSGSGTEFTLTISSLQSEDFAVYYCQQYNNWPLTFGGGTKVEIK
notes: Fully human IgG, constant region not specified; also called 3B9-10N
B5: 3H7-6 (antibody, V domains shown)
VH: EVQLVESGGGLVQPGRSLRLSCAASGFTFYDYAMHWVRQAPGKGLEWVSGISWNSGYIGYADSVKGRFTISRDNAKNSLYLQMNSLRAEDTALYYCAKDNSYGKFYYGLDVWGQGTTVTVSS
VL: B4 VL with A19T, Q37L, T51A, T72I, L96I, G100Q, K103R, V104L
notes: Fully human IgG, constant region not specified; also called 3H7-6N
B6: 9C3-8 (antibody, V domains shown)
VH: B4 VH with V23A, T28S, N30H, V50G, I58L, H84N, Y107H, Q111K
VL: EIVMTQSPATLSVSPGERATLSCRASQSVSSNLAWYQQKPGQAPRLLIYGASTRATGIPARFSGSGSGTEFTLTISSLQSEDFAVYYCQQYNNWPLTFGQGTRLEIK
notes: Fully human IgG, constant region not specified; also called 9C3-8N

Assays:
human CD20 [1] = target: T1, human CD20; test: cell-based or functional assay
[2] = target: T2, mutant human CD20 #5 (P172S); test: FACS, mutant-hCD20 MG87 cells; 100%=best antibody
Description: (§1) Briefly, approximately 1×10⁶ cells from each stably transfected cell line expressing a mutant human CD20 were collected and incubated with each anti-human antibody, at 10 μg/ml, on ice for 1 hr, followed by incubation with APC-conjugated goat anti-human IgG (Jackson Immunolabs), at 10 μg/ml, on ice for 45 min. For each antibody, binding to each mutant human CD20 was assessed by flow cytometry.

[3] = target: T3, mutant human CD20 #8 (Y77F, N163D, …); test: FACS, mutant-hCD20 MG87 cells; 100%=best antibody
Description: as §1

[4] = target: T4, mutant human CD20 #10 (A157V); test: FACS, mutant-hCD20 MG87 cells; 100%=best antibody
Description: as §1

[5] = target: T5, mutant human CD20 #4 (N166D); test: FACS, mutant-hCD20 MG87 cells; 100%=best antibody
Description: as §1

[6] = target: T6, mutant human CD20 #3 (A170S, P172S); test: FACS, mutant-hCD20 MG87 cells; 100%=best antibody
Description: as §1

human CD20 [7] = target: T1, human CD20; test: cell-based or functional assay; remark: listed apart in the source

| Binder | % Cytotoxicity (CDC, Daudi), 0 hour (human CD20 [1]) | % Cytotoxicity (CDC, Daudi), 1 hour (human CD20 [1]) | % Cytotoxicity (CDC, Daudi), 6 hour (human CD20 [1]) | Percent of Binding to Mutant Human CD20 [2] | Percent of Binding to Mutant Human CD20 [3] | Percent of Binding to Mutant Human CD20 [4] | Percent of Binding to Mutant Human CD20 [5] | Percent of Binding to Mutant Human CD20 [6] | % Cytotoxicity (CDC, Daudi), 0 hour (human CD20 [7]) | % Cytotoxicity (CDC, Daudi), 1 hour (human CD20 [7]) | % Cytotoxicity (CDC, Daudi), 6 hour (human CD20 [7]) |
| --- | --- | --- | --- | --- | --- | --- | --- | --- | --- | --- | --- |
| B1 | 29.1% | 14% | 22.4% | 30% | 0% | 68% | 31% | 11% |  |  |  |
| B2 | 43.2% | 17.4% | 23.1% | 2% | 0% | 52% | 0% | 0% |  |  |  |
| B3 | 98.1% | 98.5% | 89.3% | 85% | 0% | 92% | 84% | 95% |  |  |  |
| B4 | 98.4% | 97.9% | 82.2% | 72% | 0% | 79% | 40% | 67% |  |  |  |
| B5 |  |  |  | 45% | 0% | 80% | 4% | 43% | 97.5% | 94% | 67.6% |
| B6 | 98.7% | 98.5% | 76.9% | 76% | 0% | 77% | 22% | 84% |  |  |  |
